Data set [1] addresses detyrosinated microtubules (rat cardiomyocytes).
Data set [2] addresses detyrosinated microtubules (human cardiomyocytes).

Here are results for one protein from patent US20180326022.

B1: human tubulin tyrosine ligase (TTL) (protein)
chain: MYTFVVRDENSSVYAEVSRLLLATGHWKRLRRDNPRFNLMLGERNRLPFGRLGHEPGLVQLVNYYRGADKLCRKASLVKLIKTSPELAESCTWFPESYVIYPTNLKTPVAPAQNGIQPPISNSRTDEREFFLASYNRKKEDGEGNVWIAKSSAGAKGEGILISSEASELLDFIDNQGQVHVIQKYLEHPLLLEPGHRKFDIRSWVLVDHQYNIYLYREGVLRTASEPYHVDNFQDKTCHLTNHCIQKEYSKNYGKYEEGNEMFFKEFNQYLTSALNITLESSILLQIKHIIRNCLLSVEPAISTKHLPYQSFQLFGFDFMVDEELKVWLIEVNGAPACAQKLYAELCQGIVDIAISSVFPPPDVEQPQTQPAAFIKL
As to B1, in data set [1], the “amount of polymerized, detyrosinated MTs (immunofluorescence and immunoblot) after AdV-TTL” value is 3-4 fold reduction in the amount of polymerized, detyrosinated MTs; the detyr Tubulin, western blotting relative to null, TTL (0.01) (relative to null) stood at 0.74; the detyr Tubulin, western blotting relative to null, TTL (0.1) (relative to null) is 0.28; the tyr Tubulin, western blotting relative to null, TTL (0.01) (relative to null) came to 2.63. The tyr Tubulin, western blotting relative to null, TTL (0.1) (relative to null) in data set [1] was determined as 3.32. Also, the “density of dTyr-MTs and dTyr-MT/total MT ratio (immunofluorescence) after AdV-TTL for 48 hrs” value in data set [2] is “decreased the density of dTyr-MTs and the proportion of total MTs that were detyrosinated”.
